Experimental data taken from the Human Domainome abundance scans (Beltran et al. 2025).

B1: Zinc finger homeobox protein 3, residues 2244 to 2299; numbered along this chain, Q15911 (parent)
chain: SSRTRFTDYQLRVLQDFFDANAYPKDDEFEQLSNLLNLPTRVIVVWFQNARQKARK

Variants of: B1
Test: abundance fitness (aPCA) (normalised: wild type 0, dead -1); higher = more abundant; growth selection in yeast, the domain comes from the species named
Details: Homo sapiens

Abundance fitness: each site, then its substitutions
D16: S -0.023, W -0.714, I -0.22, C -0.472, N -0.222, R -0.035
D27: S -0.077, M -0.037, P -0.388, G 0.095, V -0.215
L14: I -0.108, D -0.825, W -0.946, E -0.807, S -0.849, F -0.768, H -1.24
K53: W -0.083, A 0.032, Q -0.109, C -0.029, R -0.116, I -0.019, D 0.202, S 0.062, G -0.005
T40: Q -0.214, F -0.107, M 0.073, D -0.356, I -0.175, C -0.012
Q48: K -0.034, E 0.086, R -0.071, N -0.259, H -0.407, C -0.221, S -0.022, L -0.309, V -0.066, W -0.554
S1: I 0.252, A -0.047, M -0.277, V -0.158, P -0.636, T 0.003
A22: P 0.101, F -0.353, N -0.024, I -0.07, H -0.125, V -0.14, R -0.147, E 0.082, C -0.156
L32: P -1.02, R -0.856, F -0.546, E -0.957, Y -0.19
A20: Y -0.291, L -0.188, V -0.249, G -0.13, M -0.268, F -0.618, Q -0.111
L38: E -0.278, G -0.884, R -0.517, C -0.451, V -0.226
T4: C -0.632, G -0.394, D 0.117, I 0.032, N 0.211, M 0.304
N34: R -0.113, V 0.001, P -0.137, T -0.145, C -0.343, G -0.058, D -0.199, W -0.61, K 0.137, L -0.17
K56: I -0.302, T -0.032, G -0.029, Q -0.163
V44: R -0.093, H -0.524, F -0.174, I -0.223
Q10: F -0.569, A -0.649, W -0.964, K -0.924, D -0.631, T -0.714, P -0.923, L -0.919
F6: C -0.345, K -0.408, M 0.094, Y -0.06, L -0.321
Y23: R -0.019, E 0.139, P -0.749, D -0.018, M 0.041, W 0.019, A -0.188, L -0.161, C -0.283, I 0.092, S -0.051
V13: D -0.692, P -0.773, E -0.237, G -0.339, Y 0.003, C -0.276
K25: E -0.306, C -0.184
R5: Q 0.092, Y 0.344, F 0.234, G 0.19, N 0.305, S 0.2, D 0.423
V42: A -0.045, D 0.055, Q -0.028, M -0.059, W -0.146, R -0.083, P 0.026, K -0.036
N49: S -0.056, K -0.024, F -0.581, W -0.252, G 0.046, I -0.259, Q -0.207, L -0.334, D 0.066, T -0.119
Y9: W -0.217, I -0.383, P -0.195, T -0.135, D 0.002, G -0.063, A 0.083, S 0.053
P39: Q -0.028, C -0.634, K -0.197, A -0.342, D 0.196, G -0.297
A50: T -0.08, M 0.047, I -0.241, S -0.084, E -0.095
F47: W -0.399, Q -1.02, Y -0.112, P -0.89, D -0.751, N -0.928, C -0.728, G -0.66
F29: S -0.423, H -0.484, L -0.035, Q -0.435, M -0.271, K -0.412
T7: D -0.258, H -0.665, L -0.363, P -0.84, N -0.565, F -0.725, M -0.46
S2: G -0.006, F -0.214, C -0.118, T 0.214, W -0.255, R -0.299
R12: I -0.312, A -0.455, V -0.466, L -0.221, F -0.738, N 0.035
D26: Y -0.105, W -0.376, C -0.506, S -0.219
N21: L -0.912, P -0.74, E -0.262, D -0.306, G -0.378
D19: V -0.141, W -0.329, C -0.036, Q -0.263, A -0.024
F17: L -0.381, H 0.245, M -0.039, E -0.076
L11: V 0.015, N 0.007, H -0.203, R -0.141, I 0.055
N37: D -0.032, A -0.096
F18: Q -0.268, C -0.174, S -0.349, L -0.19
R3: C 0.467, P 0.17, V 0.392, A 0.388, M 0.308, H 0.368, S 0.386, W 0.094
I43: E -1.07, H -1.13, N -1, G -0.637, L -0.163, A -0.56, R -0.837
R41: Q 0.018, I 0.052, V 0.108, K 0.074, H 0.117, F -0.011
S33: Y -0.871, C -0.498, A -0.109, W -0.848, I -1.08, M -0.638, Q -0.507, N -0.728, D -0.833, E -0.5
P24: A -0.555, V -0.657
Q31: H -0.165, R -0.007, Y -0.186, M -0.146, T 0.035, K 0.022, F 0.162
Q15: H -0.036, V -0.319, T -0.113, D -0.172, F -0.299, P -0.889
E28: H -0.435, W -0.719, N -0.39, D 0.2, Y -0.785, S -0.295
W46: G -0.856, D -1.14, S -0.526, K -0.764, H -0.617, L -1.09, P -1.07, Q -1.17
V45: Y -0.19, L -0.12, A 0.004, H 0.032, G 0.077
L35: A -0.078, T 0.117, N -0.004, D 0.115, I 0.067
L36: Y -0.86, S -0.272, Q -0.988, I -0.459, W -0.811, M -0.375
D8: E -0.138, G -0.145, M -0.202, K -0.027, L -0.332, F -0.591
R55: V -0.048, N -0.218, F -0.069, H 0.104, K 0.005, W -0.302, L -0.001
Q52: C 0.002, K -0.077, V 0.128, Y -0.14, A -0.008, N -0.144, W -0.204
R51: L -0.137
